Source: paper PMC9287425, “Hepatic non-parenchymal S100A9-TLR4-mTORC1 axis normalizes diabetic ketogenesis” (Nature Communications, 2022)
One block for each binder: values may come before it.

Tests used:
[1] = target: the molecule itself; test: SEC; analytical gel filtration, Superose 6 Increase 3.2/300 column
[2] = target: T1, recombinant human S100A9 (human), P06702; test: SEC-MALS; 30 µL of protein at 5 mg/mL on a Superose 6 Increase 10/300 GL column; light scattering and refractive index detectors; details: remark: other sources report otherwise
T1 chain: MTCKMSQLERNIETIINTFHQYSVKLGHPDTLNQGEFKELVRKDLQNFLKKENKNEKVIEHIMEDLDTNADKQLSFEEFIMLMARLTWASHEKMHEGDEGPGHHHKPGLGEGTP

B1: recombinant murine S100A9 (natural protein, UniProt P31725 1-113, looked up)
chain: MANKAPSQMERSITTIIDTFHQYSRKEGHPDTLSKKEFRQMVEAQLATFMKKEKRNEALINDIMEDLDTNQDNQLSFEECMMLMAKLIFACHEKLHENNPRGHGHSHGKGCGK
notes: cDNA encoding the protein cloned into a pET29+ vector; The homodimeric status is said of r-hS100A9; also called r-mS100A9; not shown: His10, N-terminal, cleaved; MBP, N-terminal, cleaved
binding result [1]: binds

stoichiometry N [2]: 2
B2: recombinant human S100A9, P06702 1-114 (natural protein)
chain: T1 chain
